Measured values: paper PMC5821942, “Crystal structure of IspF from Bacillus subtilis and absence of protein complex assembly amongst IspD/IspE/IspF enzymes in the MEP pathway” (Bioscience Reports, 2018)

What was measured:
[1] = target: the molecule itself; experiment: SEC; Superdex75 10/300 GL; single B. subtilis proteins and triple mixture (0.2 mg each, 250 μl); 100 mM NaCl, 25 mM Tris/HCl pH 8.0; 1 mM MgCl2, 1 mM MEP, 1 mM CTP if IspD present; 30°C 30 min
[2] = target: the molecule itself; experiment: SEC; Superdex200 10/300 GL; single E. coli proteins and triple mixture (0.2 mg each, 250 μl); 100 mM NaCl, 25 mM Tris/HCl pH 8.0; 1 mM MgCl2, 1 mM MEP, 1 mM CTP if IspD present; 30°C 30 min
[3] = target: the molecule itself; experiment: crystal structure; BsIspF native and with CMP, space group P2(1), six monomers in the asymmetric unit, 1.99 Å

| Protein | stoichiometry N [2] | also measured |
| --- | --- | --- |
| 2-C-Methyl-D-erythritol-4-phosphate cytidyltransferase (IspD) from Bacillus subtilis (enzyme, Bacillus subtilis 168, UniProt Q06755 1-232, looked up, IspD of B. subtilis 168 (DSM 23778); ispD gene amplified from genomic DNA, ~699 bp product, cloned BamHI/XhoI into pGEX-6P-1; GST removed by PreScission protease; also called BsIspD; source: E. coli DH5α (pGEX-6P-1), purified (Glutathione Sepharose 4 Fast Flow, Resource Q, Superdex 75)) MSYDVVIPAAGQGKRMKAGRNKLFIELKGDPVIIHTLRVFDSHRQCDKIILVINEQEREHFQQLLSDYPFQTSIELVAGGDERQHSVYKGLKAVKQEKIVLVHDGARPFIKHEQIDELIAEAEQTGAAILAVPVKDTIKRVQDLQVSETIERSSLWAVQTPQAFRLSLLMKAHAEAERKGFLGTDDASLVEQMEGGSVRVVEGSYTNIKLTTPDDLTSAEAIMESESGNKHV |  | stoichiometry N [1]: 2 |
| 2-C-Methyl-D-erythritol-4-phosphate cytidyltransferase (IspD) from Escherichia coli (enzyme, Escherichia coli K12, UniProt Q46893 1-236, looked up, IspD of E. coli K12; ispD gene PCR amplified and inserted into pET-22b; histidine tag removed by thrombin; also called EcIspD; source: E. coli BL21 (DE3) (pET-22b), purified (Ni-NTA, Resource Q, Superdex 75); not shown: His6, C-terminal, cleaved) MATTHLDVCAVVPAAGFGRRMQTECPKQYLSIGNQTILEHSVHALLAHPRVKRVVIAISPGDSRFAQLPLANHPQITVVDGGDERADSVLAGLKAAGDAQWVLVHDAARPCLHQDDLARLLALSETSRTGGILAAPVRDTMKRAEPGKNAIAHTVDRNGLWHALTPQFFPRELLHDCLTRALNEGATITDEASALEYCGFHPQLVEGRADNIKVTRPEDLALAEFYLTRTIHQENT | 2 |  |
| 2-C-Methyl-D-erythritol 2,4-cyclodiphosphate synthase (IspF) from Bacillus subtilis (enzyme, Bacillus subtilis 168, IspF of B. subtilis 168 (DSM 23778); ispF gene amplified from genomic DNA, ~477 bp product, cloned BamHI/XhoI into pGEX-6P-1; GST removed by PreScission protease; also called BsIspF; MEcDP synthase; source: E. coli DH5α (pGEX-6P-1), purified (Glutathione Sepharose 4 Fast Flow, Resource Q, Superdex 75)) MFRIGQGFDVHQLVEGRPLIIGGIEIPYEKGLLGHSDADVLLHTVADACLGAVGEGDIGKHFPDTDPEFKDADSFKLLQHVWGIVKQKGYVLGNIDCTIIAQKPKMLPYIEDMRKRIAEGLEADVSQVNVKATTTEKLGFTGRAEGIAAQATVLIQKG |  | stoichiometry N [3]: 3 |
| 2-C-Methyl-D-erythritol 2,4-cyclodiphosphate synthase (IspF) from Escherichia coli (enzyme, Escherichia coli K12, UniProt P62617 1-159, looked up, IspF of E. coli K12; ispF gene PCR amplified and inserted into pET-22b; histidine tag removed by thrombin; also called EcIspF; source: E. coli BL21 (DE3) (pET-22b), purified (Ni-NTA, Resource Q, Superdex 75); not shown: His6, C-terminal, cleaved) MRIGHGFDVHAFGGEGPIIIGGVRIPYEKGLLAHSDGDVALHALTDALLGAAALGDIGKLFPDTDPAFKGADSRELLREAWRRIQAKGYTLGNVDVTIIAQAPKMLPHIPQMRVFIAEDLGCHMDDVNVKATTTEKLGFTGRGEGIACEAVALLIKATK | 3 |  |
